This is an account of results in patent publication US11155643B2, “Glucan kinases and methods for processing starch using the same” (University of Kentucky Research Foundation, priority 2017, dated 2021).

Data set [1] in a line: stability of purified, concentrated protein on storage. The following applies: 4° C., concentrated to 18 mg/ml. The format is physicochemical. The procedure:
In addition, these constructs were purified using a 3-step purification scheme to sufficient purity for enzymatic assays (FIGS. 9B,D & 10A). Constructs that express each of the individual domains were identified, as well as constructs just lacking the cTP. Expression yields for these constructs ranged from 2-65 mg/1 L of E. coli using a 3-step purification. One of the most promising St-GWD constructs allowed the instant inventors to purify 60-65 mg of >95% pure St-GWD per liter of E. coli using a 3-step purification protocol (FIGS. 10A & 10B). Importantly, the purified protein was concentrated to 18 mg/ml and the protein was stable at 4° C. for >1 WEEK.

Data set [2] is described as follows: glucose release from native starch treated with combinations of amylases, dikinase and phosphatase. It counts as biochemical, Arabidopsis. The following applies: BAM3, ISA3; 25° C., 60 minutes; FIG. 7. The procedure: FIG. 7 includes a plot showing the glucose released for native Arabidopsis starch that was incubated at 25° C. for 60 minutes with combinations of amylases (BAM+ISA), dikinase (At-GWD), or phosphatase (At-SEX4), undigested starch was pelleted with a high-speed spin, the supernatant sugars were hydrolyzed via acid hydrolysis and glucose content was measured.
To observe how GWDs can be utilized to enhance starch utilization, native Arabidopsis starch was first treated with combinations of BAM3, ISA3, St-GWD, and At-SEX4. a high-speed spin was performed to remove the undigested starch, any remaining oligo-saccharides were hydrolyzed, and glucose released into the supernatant was measured (FIG. 7). Glucose was only released upon addition of amylases.
Native Arabidopsis starch was treated with combinations of BAM3, ISA3, StGWD, and AtSEX4, performed a high-speed spin to remove the undigested starch, hydrolyzed any remaining oligo-saccharides, and measured glucose released into the supernatant (FIG. 7). Glucose was only released upon addition of amylases, as expected.

Data set [3] in a line: cellulose phosphorylation assay (33P-β-ATP radio-label incorporation into cellulose). The format is biochemical. To be noted: FIG. 11C, 11D. The procedure: Next, it was tested whether phosphorylation could be directed towards cellulose, the most abundant polymer on earth, by building chimeras comprising cellulose-binding CBMs. Both the CBM30 and CBM44 were chosen from the cellulase CelJ of the thermophilic, gram-positive bacterium Clostridium thermocellum, which bind cellulose with high affinity. The engineered protein containing CtCBM30 and CtCBM44 was purified. The starch-phosphorylation assay was modified to develop an assay for measure phosphorylation of cellulose, which was obtained from Sigma-Avicel PH-101. To measure dikinase activity, the cellulose was incubated with the engineered chimeric dikinase in question along with ^33P-β-ATP, the ^33P-β-ATP and enzyme were washed out, and radio-label incorporation into the cellulose was measured.

B1: St-GWD: full length Solanum tuberosum glucan, water dikinase, amino acids 1-1464 (protein, listed as Solanum tuberosum)
chain: MSNSLGNNLLYQGFLTSTVLEHKSRISPPCVGGNSLFQQQVISKSPLSTEFRGNRLKVQKKKIPMEKKRAFSSSPHAVLTTDTSSELAEKFSLGGNIELQVDVRPPTSGDVSFVDFQVTNGSDKLFLHWGAVKFGKETWSLPNDRPDGTKVYKNKALRTPFVKSGSNSILRLEIRDTAIEAIEFLIYDEAHDKWIKNNGGNFRVKLSRKEIRGPDVSVPEELVQIQSYLRWERKGKQNYPPEKEKEEYEAARTVLQEEIARGASIQDIRARLTKTNDKSQSKEEPLHVTKSDIPDDLAQAQAYIRWEKAGKPNYPPEKQIEELEEARRELQLELEKGITLDELRKTITKGEIKTKVEKHLKRSSFAVERIQRKKRDFGHLINKYTSSPAVQVQKVLEEPPALSKIKLYAKEKEEQIDDPILNKKIFKVDDGELLVLVAKSSGKTKVHLATDLNQPITLHWALSKSPGEWMVPPSSILPPGSIILDKAAETPFSASSSDGLTSKVQSLDIVIEDGNFVGMPFVLLSGEKWIKNQGSDFYVGFSAASKLALKAAGDGSGTAKSLLDKIADMESEAQKSFMHRFNIAADLIEDATSAGELGFAGILVWMRFMATRQLIWNKNYNVKPREISKAQDRLTDLLQNAFTSHPQYREILRMIMSTVGRGGEGDVGQRIRDEILVIQRNNDCKGGMMQEWHQKLHNNTSPDDVVICQALIDYKSDFDLGVYWKTLNENGITKERLLSYDRAIHSEPNFRGDQKGGLLRDLGHYMRTLKAVHSGADLESAIANCMGYKTEGEGFMVGVQINPVSGLPSGFQDLLHFVLDHVEDKNVETLLERLLEAREELRPLLLKPNNRLKDLLFLDIALDSTVRTAVERGYEELNNANPEKIMYFISLVLENLALSVDDNEDLVYCLKGWNQALSMSNGGDNHWALFAKAVLDRTRLALASKAEWYHHLLQPSAEYLGSILGVDQWALNIFTEEIIRAGSAASLSSLLNRLDPVLRKTANLGSWQIISPVEAVGYVVVVDELLSVQNEIYEKPTILVAKSVKGEEEIPDGAVALITPDMPDVLSHVSVRARNGKVCFATCFDPNILADLQAKEGRILLLKPTPSDIIYSEVNEIELQSSSNLVEAETSATLRLVKKQFGGCYAISADEFTSEMVGAKSRNIAYLKGKVPSSVGIPTSVALPFGVFEKVLSDDINQGVAKELQILMKKLSEGDFSALGEIRTTVLDLSAPAQLVKELKEKMQGSGMPWPGDEGPKRWEQAWMAIKKVWASKWNERAYFSTRKVKLDHDYLCMAVLVQEIINADYAFVIHTTNPSSGDDSEIYAEVVRGLGETLVGAYPGRALSFICKKKDLNSPQVLGYPSKPIGLFIKRSIIFRSDSNGEDLEGYAGAGLYDSVPMDEEEKVVIDYSSDPLITDGNFRQTILSNIARAGHAIEELYGSPQDIEGVVRDGKIYVVQTRPQM
On to B1, for which the “time the protein was stable” value in data set [1] is listed as > 1 WEEK. Also, the “effect on glucose release when added to amylases” value in data set [2] is on record as “almost doubled”.

B2: CtCBM30-StGWD: chimera of Clostridium thermocellum CelJ CBM30 and StGWD dikinase domain (protein)
chain: MGHHHHHHMEQKLISEEDLTSASSASAETVAPEGYRKLLDVQIFKDSPVVGWSGSGMGELETIGDTLPVDTTVTYNGLPTLRLNVQTTVQSGWWISLLTLRGWNTHDLSQYVENGYLEFDIKGKEGGEDFVIGFRDKVYERVYGLEIDVTTVISNYVTVTTDWQHVKIPLRDLMKINNGFDPSSVTCLVFSKRYADPFTVWFSDIKITSEDNEKSAPAIKVGVQINPVSGLPSGFQDLLHFVLDHVEDKNVETLLERLLEAREELRPLLLKPNNRLKDLLFLDIALDSTVRTAVERGYEELNNANPEKIMYFISLVLENLALSVDDNEDLVYCLKGWNQALSMSNGGDNHWALFAKAVLDRTRLALASKAEWYHHLLQPSAEYLGSILGVDQWALNIFTEEIIRAGSAASLSSLLNRLDPVLRKTANLGSWQIISPVEAVGYVVVVDELLSVQNEIYEKPTILVAKSVKGEEEIPDGAVALITPDMPDVLSHVSVRARNGKVCFATCFDPNILADLQAKEGRILLLKPTPSDIIYSEVNEIELQSSSNLVEAETSATLRLVKKQFGGCYAISADEFTSEMVGAKSRNIAYLKGKVPSSVGIPTSVALPFGVFEKVLSDDINQGVAKELQILMKKLSEGDFSALGEIRTTVLDLSAPAQLVKELKEKMQGSGMPWPGDEGPKRWEQAWMAIKKVWASKWNERAYFSTRKVKLDHDYLCMAVLVQEIINADYAFVIHTTNPSSGDDSEIYAEVVRGLGETLVGAYPGRALSFICKKKDLNSPQVLGYPSKPIGLFIKRSIIFRSDSNGEDLEGYAGAGLYDSVPMDEEEKVVIDYSSDPLITDGNFRQTILSNIARAGHAIEELYGSPQDIEGVVRDGKIYVVQTRPQM
modifications: Chimeric Protein
notes: chimera of Clostridium thermocellum CelJ CBM30 and StGWD dikinase domain
With B2, the phosphorylation of cellulose entry in data set [3] is “robustly phosphorylated cellulose”.
